The results in this text go back to the supplement of paper PMC10567573.

To fix the notation:
B1: TRIM35 (parent)
chain: WEVQVSPTCPVCKDRASPADLRTN
B2: SETD8 (parent)
chain: FVVEYHGDLIEITDAKKREALYAQ
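Also: lentivirally expressed fusions sorted by FACS into six bins by GFP to DsRed ratio, PSI derived from sequencing read proportions per bin multiplied by bin number.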

In the first data set the parent is B1. Nature of the data set: protein stability index of a GFP-peptide fusion (GPS, HEK-293T) (PSI 1-6); higher = more stable. The following applies: c terminus: a fixed tail appended.
Turning to WEVQVSPTCPVCKDRASPADLDTN [R22D], the protein stability index came to 3.8. Still for that read-out and setting: the same measure for WEVQVGPTCPVCKDRASPADLRTN [S6G]: 2.54; for WEVQVHPTCPVCKDRASPADLRTN [S6H]: 3.03. The same measure, in the same setting: next, WEVQVPPTCPVCKDRASPADLRTN [S6P]: 2.87.

WEVQVEPTCPVCKDRASPADLRTN [S6E]: the protein stability index was found to be 1.71.

As to WEVQVMPTCPVCKDRASPADLRTN [S6M], the protein stability index worked out at 1.89. On the same count and under the same terms, next, WEVQVLPTCPVCKDRASPADLRTN [S6L]: 2.6.

As to WMVQVSPTCPVCKDRASPADLRTN [E2M], the protein stability index was 1.41. On the same count and under the same terms, the same measure for WRVQVSPTCPVCKDRASPADLRTN [E2R]: 1.98. Take WIVQVSPTCPVCKDRASPADLRTN [E2I]: the protein stability index was 2.45. Still for that read-out and setting: the same measure for WHVQVSPTCPVCKDRASPADLRTN [E2H]: 2.51; for WGVQVSPTCPVCKDRASPADLRTN [E2G]: 2.56; for WCVQVSPTCPVCKDRASPADLRTN [E2C]: 2.46.

Consider WTVQVSPTCPVCKDRASPADLRTN [E2T], for which the protein stability index came to 2.02. Still for that read-out and setting: next, WDVQVSPTCPVCKDRASPADLRTN [E2D]: 2.2. As to WEVQVSPTCPVIKDRASPADLRTN [C12I], the protein stability index was found to be 3.4.

Consider WEVQVSPTCPVPKDRASPADLRTN [C12P], for which the protein stability index came to 3.86. The same measure, in the same setting: the same measure for WEVQVSPTCPVQKDRASPADLRTN [C12Q]: 3.9.

On to WEVQVSPTCPVDKDRASPADLRTN [C12D], for which the protein stability index worked out at 4.14.

On to WEVQVSPTCPVFKDRASPADLRTN [C12F], for which the protein stability index was found to be 3.29. On the same count and under the same terms, next, WEVQVSPTCPVGKDRASPADLRTN [C12G]: 3.7; WEVQVSPTCPVVKDRASPADLRTN [C12V]: 3.89; WEVQVSPTCPVHKDRASPADLRTN [C12H]: 3.46. Same read-out and setting: next, WEVQVSPTCPVCKDRASPADLRPN [T23P]: 2.08; WEVQVSPTCPVCKDRASPADLRWN [T23W]: 2.02. The same measure, in the same setting: next, WEVQVSPTCPVCKDRASPADLRAN [T23A]: 2.28; WEVQVSPTCPVCKDRASPADLRVN [T23V]: 2.06; WEVQVSPTCPVCKDRASPADLRLN [T23L]: 3.09. For WEVQVSPTCPVCKDRASPADLRDN [T23D], the protein stability index is 3.45. WEVQVSPTCPVCKDRASPADLRIN [T23I]: the protein stability index is 2.18. For WEVQVSPTCPVCKDRASPADLRMN [T23M], the protein stability index came to 2.5.

In the case of WEVQVSPTCPVCKDRASPADLRNN [T23N], the protein stability index stood at 2.74. On the same count and under the same terms, the same measure for WEVQVSPTCPVCKDRASPAYLRTN [D20Y]: 1.18; for WEVQVSPTCPVCKDRASPAELRTN [D20E]: 2.95; for WEVQVSPTCPVCKDRASPAHLRTN [D20H]: 1.66. The same measure, in the same setting: the same measure for WEVQVSPTCPVCKDRASPAKLRTN [D20K]: 2.08; for WEVQVSPTCPVCKDRASPALLRTN [D20L]: 2.15.

In the case of MEVQVSPTCPVCKDRASPADLRTN [W1M], the protein stability index turned out to be 2.75. The same measure, in the same setting: next, NEVQVSPTCPVCKDRASPADLRTN [W1N]: 3.23; VEVQVSPTCPVCKDRASPADLRTN [W1V]: 3.4; FEVQVSPTCPVCKDRASPADLRTN [W1F]: 2.85.

As for KEVQVSPTCPVCKDRASPADLRTN [W1K], the protein stability index turned out to be 3.54. For HEVQVSPTCPVCKDRASPADLRTN [W1H], the protein stability index was determined as 3.37. Still for that read-out and setting: the same measure for YEVQVSPTCPVCKDRASPADLRTN [W1Y]: 2.65. On the same count and under the same terms, the same measure for AEVQVSPTCPVCKDRASPADLRTN [W1A]: 3.05; for CEVQVSPTCPVCKDRASPADLRTN [W1C]: 3; for TEVQVSPTCPVCKDRASPADLRTN [W1T]: 2.79.

WEVQVSPTCPVCKIRASPADLRTN [D14I]: the protein stability index amounted to 1.93.

As for WEVQVSPTCPVCKTRASPADLRTN [D14T], the protein stability index is 1.83. On the same count and under the same terms, the same measure for WEVQVSPTCPVCKVRASPADLRTN [D14V]: 1.61. On to WEVQVSPTCPVCKHRASPADLRTN [D14H], for which the protein stability index stood at 1.81. On the same count and under the same terms, next, WEVQVSPTCPVCKQRASPADLRTN [D14Q]: 2.18; WEVQVSPTCPVCKMRASPADLRTN [D14M]: 1.75. Take WEVQVSPTCPVCKDYASPADLRTN [R15Y]: the protein stability index was 2.34. With WEVQVSPTCPVCKDPASPADLRTN [R15P], the protein stability index was 3.31. Still for that read-out and setting: the same measure for WEVQVSPTCPVCKDIASPADLRTN [R15I]: 2.48. As for WEVQVSPTCPVCKDWASPADLRTN [R15W], the protein stability index stood at 2.53. Same read-out and setting: next, WEVQVSPTCPVCKDVASPADLRTN [R15V]: 2.74. Same read-out and setting: next, WEVQVSPTCPVCKDNASPADLRTN [R15N]: 2.48; WEVQVSPTCPVCKDLASPADLRTN [R15L]: 2.47; WEVQVSPTCPVCKDAASPADLRTN [R15A]: 3.22. Still for that read-out and setting: the same measure for WEVQVSPTCPVCKDRANPADLRTN [S17N]: 2.51; for WEVQVSPTCPVCKDRAMPADLRTN [S17M]: 2.01. With WEVQVSPTCPVCKDRALPADLRTN [S17L], the protein stability index turned out to be 2.75. Same read-out and setting: the same measure for WEVQVSPTCPVCKDRAVPADLRTN [S17V]: 2.23; for WEVQVSPTCPVCKDRAFPADLRTN [S17F]: 2.19.

Take WEVQVSPTCPVCKDRAEPADLRTN [S17E]: the protein stability index worked out at 3.89. Turning to WEVQVSPTCPVCKDRASPPDLRTN [A19P], the protein stability index turned out to be 2.02. Same read-out and setting: next, WEVQVSPTCPVCKDRASPRDLRTN [A19R]: 1.54; WEVQVSPTCPVCKDRASPFDLRTN [A19F]: 2.99; WEVQVSPTCPVCKDRASPGDLRTN [A19G]: 2.24. Regarding WEVQVSPTCPVCKDRASPSDLRTN [A19S], the protein stability index was 1.78. Same read-out and setting: next, WEVQVSPTCPVCKDRASPWDLRTN [A19W]: 2.3.

With WEVQVSPTCPVCKDRASPDDLRTN [A19D], the protein stability index turned out to be 3.38. The same measure, in the same setting: the same measure for WEVQVSPTCPVCKDRASPCDLRTN [A19C]: 2.31; for WEVQVSPTCPVCKDRASPQDLRTN [A19Q]: 2.31.

A further data set covers variants of B2. The data set is described as above. The following applies: c terminus: a fixed tail appended.
On to GVVEYHGDLIEITDAKKREALYAQ [F1G], for which the protein stability index stood at 4.8. For KVVEYHGDLIEITDAKKREALYAQ [F1K], the protein stability index was 3.65. On the same count and under the same terms, the same measure for LVVEYHGDLIEITDAKKREALYAQ [F1L]: 1.85; for VVVEYHGDLIEITDAKKREALYAQ [F1V]: 2.5; for DVVEYHGDLIEITDAKKREALYAQ [F1D]: 4.46. For the variant IVVEYHGDLIEITDAKKREALYAQ [F1I], the protein stability index stood at 2.37. Same read-out and setting: the same measure for AVVEYHGDLIEITDAKKREALYAQ [F1A]: 4.23. The same measure, in the same setting: next, RVVEYHGDLIEITDAKKREALYAQ [F1R]: 3.74. Still for that read-out and setting: the same measure for SVVEYHGDLIEITDAKKREALYAQ [F1S]: 4.43; for MVVEYHGDLIEITDAKKREALYAQ [F1M]: 2.71. For PVVEYHGDLIEITDAKKREALYAQ [F1P], the protein stability index is 4.46. Same read-out and setting: the same measure for CVVEYHGDLIEITDAKKREALYAQ [F1C]: 3.3. Still for that read-out and setting: next, NVVEYHGDLIEITDAKKREALYAQ [F1N]: 4.78; QVVEYHGDLIEITDAKKREALYAQ [F1Q]: 4.63; YVVEYHGDLIEITDAKKREALYAQ [F1Y]: 2.62. On the same count and under the same terms, the same measure for TVVEYHGDLIEITDAKKREALYAQ [F1T]: 4.14; for HVVEYHGDLIEITDAKKREALYAQ [F1H]: 4.35. In the case of EVVEYHGDLIEITDAKKREALYAQ [F1E], the protein stability index was 4.75.
